Legend:
human TROP2-his protein [1] = target: T1, human TROP2-his protein (human, UniProt P09758 27-274); assay: epitope grouping ELISA, 15 ug/ml antibody premixed with biotin human TROP2-his; competitor: coated BM2
T1 construct: Biotin-labelled in the ELISAs, unlabelled analyte in Biacore; also called biotin-labeled human TROP2-his protein; biotin human Trop2-his
T1 sequence: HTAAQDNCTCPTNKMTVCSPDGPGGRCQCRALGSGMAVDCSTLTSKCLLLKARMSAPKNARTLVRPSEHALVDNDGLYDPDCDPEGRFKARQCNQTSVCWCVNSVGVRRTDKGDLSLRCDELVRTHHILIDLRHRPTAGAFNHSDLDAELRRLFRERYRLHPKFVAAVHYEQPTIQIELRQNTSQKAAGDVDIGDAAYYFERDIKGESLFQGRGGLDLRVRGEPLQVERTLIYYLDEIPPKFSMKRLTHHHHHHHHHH
Protocol: (§1) Firstly, capture ELISA was performed to determine the concentration of biotin-labeled human Trop2 proteins appropriate for the epitope binning test. […] The plates were washed for 4 times, added with 100 μl/well of serially diluted biotin human Trop2-his proteins (SEQ ID NO: 67) in PBST with 2.5% non-fatty milk (starting from 1.3 μg/ml with a 5-fold serial dilution), and incubated for 40 min at 37° C. Then the plates were washed for 4 times and added with 100 μl/vell of HRP-streptavidin (Jackson Immuno Research, Cat #016-030-084). The plates were incubated for another 40 min at 37° C. Then the plates were washed again, and 100 μl/well TMB was added for color development at RT for 15 min followed by quenching with 50 μl 1M H₂SO₄. The OD values at 450 nm were read.
(§2) With the appropriate concentration determined above, epitope grouping ELISA was performed. […] ELISA plates were washed once with wash buffer (PBS+0.05% v/v Tween-20, PBST) and then blocked with 200 μl blocking buffer (5% w/w non-fatty milk in PBST) for 2 hours at 37° C. […] The mixtures were incubated at room temperature for 40 minutes. After plate washing for 4 times, the antibody/biotin-TROP2-his protein mixtures were added to the antibody coated plates, 100 μl per well, and incubated for another 40 min at 37° C. Then 100 μl/well of HRP-streptavidin was added and incubated for 40 min. Then OD₄₅₀ values were determined and the cross-competition capability was calculated (cross-competition capability of antibody X (%)=(OD₄₅₀ of Antibody X-[…] of Blank)/(OD₄₅₀ of no mAb-OD₄₃₀ of Blank)*100%).

[2] = target: T2, full length human TROP2 on 293F-TROP2 cells (human, UniProt P09758 27-323); assay: FACS on 293F-TROP2 cells, MFI
T2 construct: also called 293F-TROP2 cells (clone ID #3A8); cell surface TROP2
T2 sequence: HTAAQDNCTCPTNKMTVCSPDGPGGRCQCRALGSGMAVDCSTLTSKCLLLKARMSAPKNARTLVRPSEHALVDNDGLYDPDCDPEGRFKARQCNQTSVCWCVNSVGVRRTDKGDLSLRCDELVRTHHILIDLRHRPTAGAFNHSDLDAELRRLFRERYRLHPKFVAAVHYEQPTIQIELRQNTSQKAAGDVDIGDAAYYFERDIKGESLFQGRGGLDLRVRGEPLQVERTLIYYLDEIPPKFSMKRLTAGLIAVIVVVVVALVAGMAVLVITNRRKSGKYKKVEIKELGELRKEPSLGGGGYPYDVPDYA

human TROP2-his protein [3] = target: T1, human TROP2-his protein; assay: SPR Biacore, human TROP2-his analyte
human TROP2-his protein [4] = target: T1, human TROP2-his protein; assay: epitope grouping ELISA, 15 ug/ml antibody premixed with biotin human TROP2-his; competitor: coated huA1E4F7D4-V16
Protocol: as §1, §2

human TROP2-his protein [5] = target: T1, human TROP2-his protein; assay: epitope grouping ELISA, 15 ug/ml antibody premixed with biotin human TROP2-his; competitor: coated BM1
Protocol: as §1, §2

B1: BM2 (in house made analog of Datopotamab) (antibody, human IgG1, kappa, V domains shown)
VH: QVQLVQSGAEVKKPGASVKVSCKASGYTFTTAGMQWVRQAPGQGLEWMGWINTHSGVPKYAEDFKGRVTISADTSTSTAYLQLSSLKSEDTAVYYCARSGFGSSYWYFDVWGQGTLVTVSS
VL: DIQMTQSPSSLSASVGDRVTITCKASQDVSTAVAWYQQKPGKAPKLLIYSASYRYTGVPSRFSGSGSGTDFTLTISSLQPEDFAVYYCQQHYITPLTFGQGTKLEIKR
Human TROP2-his protein [1]
  OD450: 0.354 OD450
[2]
  EC50: 0.908 nM
Human TROP2-his protein [3]
  Kd: 28.7 nM
  koff: 0.00364 s⁻¹
  kon: 127000 M⁻¹ s⁻¹
Human TROP2-his protein [4]
  OD450: 1.63 OD450
Human TROP2-his protein [5]
  OD450: 0.519 OD450
